Laboratory results taken from publication PMC9126950, “SARS-CoV-2 detection using a nanobody-functionalized voltammetric device” (Communications Medicine, 2022).
Changes are numbered by the printed parent chain.

B1: VHH-72-C13 (VHH)
VHH: QVQLQESGGGLVCAGGSLRLSCAASGRTFSEYAMGWFRQAPGKEREFVATISWSGGSTYYTDSVKGRFTISRDNAKNTVYLQMNSLKPDDTAVYYCAAAGLGTVVSEWDYDYDYWGQGTQVTVSS
notes: also called VHH-72-13C; VHH-C13
B2: VHH-72 (VHH)
VHH: B1 VHH with C13Q

Key:
[1] = biological target: T1, SARS-CoV-2 spike receptor binding domain (RBD), recombinant (SARS-CoV-2, UniProt P0DTC2 319-541); experiment: SPR; conditions: both partners purified
T1 construct: also called SARS-CoV-2 RBD; Spike RBD

[2] = biological target: T2, SARS-CoV-2 spike receptor binding domain (RBD), recombinant (SARS-CoV-2, UniProt P0DTC2); experiment: electrochemical titration (differential pulse voltammetry); conditions: both partners purified
T2 construct: also called SARS-CoV-2 RBD; Spike RBD

Binder | Kd [1] [nM] | Kd [2] [nM]
B1 | 12.1 | 
B2 |  | 78
